Reference: US20250163186A1 (PHYLAXIS BIOSCIENCE, published 2025)
Substitutions are numbered along the chain they refer to. In names and notes the source's numbering stands. Like-named read-outs stand apart in the source and are kept apart here.

Assays:
[1] = molecular target: T1, CH2-4 constant domains of human IgE linked to a transmembrane protein, on 293 cells (human, UniProt P01854-1 104-428); assay: flow cytometry, 293 cells expressing human IgE CH2-4
T1 construct: domain: CH2-4 constant domains; also called human IgE-expressing 293 cells
T1 sequence (P01854 other isoform, or with tags, fused parts or gaps): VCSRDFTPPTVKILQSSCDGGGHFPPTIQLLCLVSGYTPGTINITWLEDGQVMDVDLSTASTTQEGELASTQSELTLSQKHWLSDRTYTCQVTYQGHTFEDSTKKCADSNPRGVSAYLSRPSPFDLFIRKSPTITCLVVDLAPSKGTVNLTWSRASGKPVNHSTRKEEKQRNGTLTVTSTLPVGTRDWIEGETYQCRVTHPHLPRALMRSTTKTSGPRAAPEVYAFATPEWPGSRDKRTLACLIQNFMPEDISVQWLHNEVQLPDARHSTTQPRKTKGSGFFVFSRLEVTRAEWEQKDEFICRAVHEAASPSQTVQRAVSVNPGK
Method: (§1) First, 25 μg of DNA was added to Opti-MEM Reduced Serum Medium (Gibco) mixed with 75 μL of 40 kDa Polyethylenimine (PEI) for a final concentration of 1 μg DNA and 2.5 μg PEI per mL of culture volume. The plasmid DNA was allowed to pre-complex with PEI for 15 minutes before transferring the mixture to 25 mL of 293 cells in a shake flask at a density of 2×10⁶ cells/mL. […] Next, 50 μL of cells were transferred to wells of a round-bottom 96-well assay plate for a total of 50,000 293 cells per well. In a separate 96-well plate, monomeric VHH-hIgG1-Fc fusion proteins were titrated 1:5 in a 8-point dilution series starting at 1 μM in FACS Buffer with the 8th point containing no antibody. 50 μL from each antibody dilution was added to wells containing 50 μL of FACS Buffer with transfected 293 cells which produced a 2-fold dilution of the antibody concentrations from the dilution series resulting in a 500 nM final, starting concentration of the test article titration. The test articles and 293 cells were incubated together at 4° C. for 30 minutes. Next, the 96-well plates were centrifuged at 400×g for 5 minutes and the FACS buffer containing unbound antibody was decanted. Cells were washed 1× with 150 μL 4° C. FACS Buffer. […] The cells were incubated with the fluorophore conjugated detection antibody at 4° C. for 20 minutes. 293 cells were then centrifuged and washed once as described above. Cell pellets were resuspended in 30 μL FACS Buffer and analyzed on an iQue Screener Plus flow cytometer (Sartorius, IntelliCyt) with a 1 second sip time and 1 second void time. Mean fluorescent intensity was calculated using iQue onboard software gating on GFP+ or citrine+ cells.

[2] = molecular target: T1, CH2-4 constant domains of human IgE …; assay: as above; remark: listed apart in the source
Method: as §1

[3] = molecular target: T1, CH2-4 constant domains of human IgE …; assay: as above; remark: listed apart in the source
Method: as §1

[4] = molecular target: T1, CH2-4 constant domains of human IgE …; assay: as above; remark: listed apart in the source
Method: as §1

[5] = molecular target: T1, CH2-4 constant domains of human IgE …; assay: as above; remark: listed apart in the source
Method: as §1

[6] = molecular target: T2, human IgE (human, UniProt P01854 1-428); assay: ELISA, plate-coated IgE, apparent Kd (one site fit)
T2 construct: written under the same molecule; also called IgE (Abcam ab65866); soluble IgE
T2 sequence (P01854 other isoform, or with tags, fused parts or gaps limits assumed, form in doubt): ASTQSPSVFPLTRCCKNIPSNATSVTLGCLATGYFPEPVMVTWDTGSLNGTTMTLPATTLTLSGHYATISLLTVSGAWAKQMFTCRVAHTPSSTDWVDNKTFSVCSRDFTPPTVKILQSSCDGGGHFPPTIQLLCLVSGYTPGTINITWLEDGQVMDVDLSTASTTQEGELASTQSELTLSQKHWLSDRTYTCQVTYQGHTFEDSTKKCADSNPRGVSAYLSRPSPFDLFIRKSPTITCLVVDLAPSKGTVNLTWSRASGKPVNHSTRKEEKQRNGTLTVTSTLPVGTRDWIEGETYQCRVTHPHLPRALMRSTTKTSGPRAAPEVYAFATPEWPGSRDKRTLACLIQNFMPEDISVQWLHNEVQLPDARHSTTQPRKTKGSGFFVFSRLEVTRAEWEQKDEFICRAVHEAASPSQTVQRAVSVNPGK
Text: The data was plotted and analyzed using GraphPad Prism analysis software.

[7] = molecular target: T2, human IgE; assay: SPR (Biacore T200, 25 C), IgE captured on protein L, antibody as analyte, 1:1 fit
Method: (§2) All experiments were done using a Biacore T200 instrument with a CM5 chip at 25° C., Flow Cell (FC) 1 was used as the reference for FC2, and FC3 for FC4.
Protein L (15 mg/mL) was diluted (1:50 dilution, 0.3 mg/mL diluted concentration) in 10 mM sodium acetate buffer at pH 4.5 and immobilized onto FCs 1 and 2 to a level of ˜13000 RU, using the standard amine coupling chemistry. […] PBS-P was used as the capture running buffer. Overnight kinetics were performed for all analytes in the presence of PBS-P. The flow rate of all analyte solutions was maintained at 50 μL/min. The contact and dissociation times used were 120 seconds and 600 seconds, respectively. Glycine pH 2.0 was injected for 20 seconds for surface regeneration. This regeneration condition takes away all captured ligand. Therefore, fresh ligand solution was captured in the beginning of each injection cycle. Injected analyte concentrations are from 50 nM to 0.098 nM (two-fold dilutions). All analytes were injected in duplicate. Sensorgrams from the overnight kinetics were evaluated by using 1:1 kinetics model fitting.

[8] = molecular target: T3, recombinant human FCER1A-His (ACRO FCA-H5228) (human, UniProt P12319 26-205); assay: SPR, antibody alone injected over captured FCER1A
T3 construct: Bought protein; also called FceRIA; IgE receptor
T3 sequence: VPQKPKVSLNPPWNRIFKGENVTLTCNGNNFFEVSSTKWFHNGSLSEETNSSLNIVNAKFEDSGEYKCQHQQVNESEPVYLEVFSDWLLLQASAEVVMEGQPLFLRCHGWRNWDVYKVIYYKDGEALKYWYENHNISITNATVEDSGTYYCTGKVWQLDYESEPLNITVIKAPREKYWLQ
Method: as §2
(§3) Anti-His antibody (1 mg/ml stock) was diluted (1:100 dilution, 0.01 mg/ml diluted concentration) in 10 mM sodium acetate buffer at pH 4.5 and immobilized onto FCs 1 and 2 to a level of ˜14000 RU, using the standard amine coupling chemistry. […] FCER1A (0.4 mg/ml stock concentration) was diluted ([…], ˜0.004 mg/ml diluted concentration) in PBS-P captured onto FC2 to levels of ˜130 RU. PBS-P was used as the capture running buffer. Overnight kinetics were performed for all analytes in the presence of PBS-P. The flow rate of all analyte solutions was maintained at 50 μL/min. The contact and dissociation times used were 120 seconds and 300 seconds, respectively. Glycine pH 1.5 was injected for 20 seconds for surface regeneration. This regeneration condition takes away all captured FCER1A. Therefore, fresh FCER1A was captured in the beginning of each injection cycle. […] All analytes were injected in duplicate. […] Sensorgrams from the overnight kinetics were plotted for further evaluation.

[9] = molecular target: T2, human IgE; assay: SPR, blocks binding of 5 nM IgE to captured FCER1A
Method: as §2, §3

[10] = molecular target: T2, human IgE; assay: ELISA, plate-coated IgE

B1: B10-NNT (Fc fusion)
VHH-Fc: EVQLVQSGGELVQAGGSLRLSCVASGLTFSSYNMGWLRQAPGKEREFVGMSGSSSTSTYYADSVKGRFTISRDNSKNTVYLQMNSLKPEDTAVYYCAARRMLSTYWSDRSWDFWGQGTQVTVKPGGPSVFLFPPKPKDTLMISRTPEVTCVVVDVSHEDPEVKFNWYVDGVEVHNAKTKPREEQYNSTYRVVSVLTVLHQDWLNGKEYKCKVSNKALPAPIEKTISKAKGQPREPQVYTLPPSRDELTKNQVNLTCLVKGFYPSDIAVEWESNGQPENNYKTTPPVLDSDGSFFLNSTLTVDKSRWQQGNVFSCSVMHEALHNHYTQKSLSLSPGK
notes: monomeric; also called parental B10 monomeric VHH-hIgG1-Fc fusion (Fc NNT)
Q: B1 was tested. Which Kd [1] did it give?
A: 1.82 nM

Q: What about the Bmax [2] of the same binder?
A: 1.17e+06 MFI

Q: What about the Kd [2] of the same binder?
A: 1.3 nM

Q: What about the Bmax [3] of the same binder?
A: 2.04e+06 MFI

Q: What about the Kd [3] of the same binder?
A: 0.872 nM

Q: And the Bmax [4]?
A: 1.36e+06 MFI

Q: What about the Kd [4] of the same binder?
A: 1.82 nM

Q: And the Bmax [5]?
A: 866000 MFI

Q: And the Kd [5]?
A: 0.461 nM

B2: hzB10v26-NNT (Fc fusion)
VHH-Fc: B1 VHH-Fc with V5L, Q6E, E10G, L11E, A14P
notes: monomeric
Q: For B2, which Kd [1] is on record?
A: 1.43 nM

B3: hzB10v25-NNT (Fc fusion)
VHH-Fc: B1 VHH-Fc with V5L, Q6E, E10G, L11E, A14P, G49S, M50L, M101L, K123E
notes: monomeric
Q: B3 was tested. Which Bmax [1] did it give?
A: 2.01e+06 MFI

Q: What about the Kd [1] of the same binder?
A: 2.8 nM

B4: hzB10v14-IgG1 DSELF Fc region (cx12739) (Fc fusion)
chain: EVQLLESGGGEVQPGGSLRLSCVASGLTFSSYNMGWLRQAPGKEREFVGLSGSSSTSTYYADSVKGRFTISRDNSKNTVYLQMNSLKPEDTAVYYCAARRLLSTYWSDRSWDFWGQGTQVTVEPGGGGDKTHTCPPCPAPELLDGPSVFLFPPKPKDTLMISRTPEVTCVVVDVEHEDPEVKFNWYVDGVEVHNAKTKPREEQYNSTYRVVSVLTVLHQDWLNGKEYKCKVSNKAFPAPIEKTISKAKGQPREPQVYTLPPSREEMTKNQVSLTCLVKGFYPSDIAVEWESNGQPENNYKTTPPVLDSDGSFFLYSKLTVDKSRWQQGNVFSCSVMHEALHNHYTQKSLSLSPGK
notes: hzB10v14 VHH + GGGG linker + human IgG1 Fc with G236D/S267E/L328F; the Fc drives homodimer formation (bivalent); also called hzB10v14-DSELF; hzB10v14-IgG DSELF Fc
Q: How did the Kd [6] turn out when B4 was run?
A: 0.197 nM

Q: And the Kd [7]?
A: 0.8 nM

Q: What about the koff [7] of the same binder?
A: 0.000288 s⁻¹

Q: And the kon [7]?
A: 359000 M⁻¹ s⁻¹

Q: Does B4 bind [8]?
A: no binding (tested: 200 nM)

Q: And the IC50 [9]?
A: ~2.4 nM

Q: And the “Bmax (OD 650 nm)” value [10]?
A: 0.742 OD 650 nm

B5: hzB10v30-NNT (Fc fusion)
VHH-Fc: EVQLLESGGGEVQPGGSLRLSCVASGLTFSSYNMGWLRQAPGKEREFVGLSGSSSTSTYYAESVKGRFTISRDNSKNTVYLQMTSLRAEDTAVYYCAARRLLSTYWSDRSWDFWGQGTQVTVEPGGPSVFLFPPKPKDTLMISRTPEVTCVVVDVSHEDPEVKFNWYVDGVEVHNAKTKPREEQYNSTYRVVSVLTVLHQDWLNGKEYKCKVSNKALPAPIEKTISKAKGQPREPQVYTLPPSRDELTKNQVNLTCLVKGFYPSDIAVEWESNGQPENNYKTTPPVLDSDGSFFLNSTLTVDKSRWQQGNVFSCSVMHEALHNHYTQKSLSLSPGK
notes: monomeric
Q: Which Kd [3] does the source give for B5 here?
A: 1.69 nM

Q: What about the Bmax [5] of the same binder?
A: 725000 MFI

Q: What about the Kd [5] of the same binder?
A: 1.63 nM

B6: hzB10v42-NNT (Fc fusion)
VHH-Fc: B5 VHH-Fc with N74S, Q119L
notes: monomeric
Q: Which Bmax [2] does the source give for B6 here?
A: 1.45e+06 MFI

Q: And the Kd [2]?
A: 2.27 nM

B7: hzB10v37-NNT (Fc fusion)
VHH-Fc: B5 VHH-Fc with R87K, Q119L
notes: monomeric
Q: For B7, which Bmax [3] is on record?
A: 1.9e+06 MFI

Q: And the Kd [3]?
A: 1.51 nM

B8: hzB10v44-NNT (Fc fusion)
VHH-Fc: B5 VHH-Fc with S75T, Q119L
notes: monomeric
Q: How did the Bmax [2] turn out when B8 was run?
A: 1.38e+06 MFI

Q: What about the Kd [2] of the same binder?
A: 2.37 nM

B9: hzB10v43-NNT (Fc fusion)
VHH-Fc: B5 VHH-Fc with N74T, Q119L
notes: monomeric
Q: With B9 as the binder, how does the Bmax [2] read?
A: 1.42e+06 MFI

Q: And the Kd [2]?
A: 2.18 nM

B10: hzB10v38-NNT (Fc fusion)
VHH-Fc: B5 VHH-Fc with A88P, Q119L
notes: monomeric
Q: With B10 as the binder, how does the Bmax [3] read?
A: 2.02e+06 MFI

Q: And the Kd [3]?
A: 0.98 nM

B11: hzB10v39-NNT (Fc fusion)
VHH-Fc: B5 VHH-Fc with Q119L
notes: monomeric
Q: Which Kd [3] does the source give for B11 here?
A: 1.37 nM

B12: hzB10v40 monomeric VHH-hIgG1-Fc fusion (Fc NNT) (Fc fusion)
chain: B5 VHH-Fc with S75A, Q119L
notes: Humanized variants were tested as monomeric fusions with the non-dimerizing Fc NNT
Q: How did the Bmax [2] turn out when B12 was run?
A: 1.38e+06 MFI

Q: What about the Kd [2] of the same binder?
A: 2.62 nM

B13: hzB10v41-NNT (Fc fusion)
VHH-Fc: B5 VHH-Fc with N74Q, Q119L
notes: monomeric
Q: Which results are given for B13?
A: Bmax [2]: 1.33e+06 MFI; Kd [2]: 2.26 nM
